Measurements published in paper PMC9820991, “Elucidating the Interaction between Pyridoxine 5′-Phosphate Oxidase and Dopa Decarboxylase: Activation of B6-Dependent Enzyme” (International Journal of Molecular Sciences, 2022).
Each block holds one molecule with its values, some of them ahead of it.

Key:
AAT [1] = molecular target: AAT (UniProt P17174); assay: fluorescence spectroscopy; conditions: cited from earlier work
GAD = GAD (UniProt Q99259); assay: FP/SPR; conditions: cited from earlier work
AAT [2] = molecular target: AAT (UniProt P17174); assay: FP/SPR; conditions: cited from earlier work
[3] = molecular target: T1, serine hydroxymethyltransferase (rabbit cytoplasmic), holo form (rabbit, UniProt P07511 1-484, PLP cofactor (holo form), residue not stated); assay: SPR; Biacore T200, 25 °C; apoDDC, holoDDC and holoSHMT immobilised on a CM5 chip by amine coupling; analytes PNPO and albumin 100 to 1.5625 µM in PBS-P (10 mM phosphate pH 7.4, 140 mM NaCl, 3 mM KCl, 0.05% P20), 50 µL/min; conditions: both partners purified
T1 construct: rabbit cytoplasmic serine hydroxymethyltransferase, recombinant, holo form; Positive control of the SPR experiment; also called holoSHMT; SHMT
T1 sequence (looked up): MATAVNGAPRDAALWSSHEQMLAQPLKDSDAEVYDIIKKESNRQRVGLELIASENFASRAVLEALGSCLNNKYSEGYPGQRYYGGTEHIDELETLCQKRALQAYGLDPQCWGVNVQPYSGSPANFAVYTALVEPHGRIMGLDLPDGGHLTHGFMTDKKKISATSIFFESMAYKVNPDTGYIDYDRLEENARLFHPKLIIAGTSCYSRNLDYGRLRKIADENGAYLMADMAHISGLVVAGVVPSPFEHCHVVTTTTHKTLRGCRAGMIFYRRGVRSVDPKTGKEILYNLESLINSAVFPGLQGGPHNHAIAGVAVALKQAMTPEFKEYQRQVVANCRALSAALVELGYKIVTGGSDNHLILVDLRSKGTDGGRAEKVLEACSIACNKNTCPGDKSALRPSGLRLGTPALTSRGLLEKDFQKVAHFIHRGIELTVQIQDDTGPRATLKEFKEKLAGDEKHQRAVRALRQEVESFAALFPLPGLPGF

[4] = molecular target: T2, human dopa decarboxylase, holo form (human, UniProt P20711 1-480, PLP as internal aldimine on Lys303); assay: as above; conditions: both partners purified
T2 construct: also called holoDDC; DDC; source: E. coli BL21(DE3)pLysS, purified (Histrap Ni2+ column, dialysis against PLP); not shown: His tag (from the Histrap column)
T2 sequence (looked up): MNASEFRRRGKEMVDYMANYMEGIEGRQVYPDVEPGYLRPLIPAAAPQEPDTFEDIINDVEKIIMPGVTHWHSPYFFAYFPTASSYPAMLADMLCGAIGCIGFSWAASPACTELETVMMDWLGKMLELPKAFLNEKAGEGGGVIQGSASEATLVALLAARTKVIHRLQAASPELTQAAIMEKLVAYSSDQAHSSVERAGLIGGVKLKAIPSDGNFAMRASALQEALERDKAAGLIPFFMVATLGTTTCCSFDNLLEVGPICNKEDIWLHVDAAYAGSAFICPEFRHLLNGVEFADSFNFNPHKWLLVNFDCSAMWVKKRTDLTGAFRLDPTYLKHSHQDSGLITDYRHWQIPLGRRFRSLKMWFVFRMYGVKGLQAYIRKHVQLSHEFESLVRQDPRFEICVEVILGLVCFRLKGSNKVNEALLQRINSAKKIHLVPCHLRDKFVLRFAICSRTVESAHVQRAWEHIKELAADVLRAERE

[5] = molecular target: T2, human dopa decarboxylase, holo form; assay: ITC; PNPO titrated into holoDDC or apoDDC in the cell; MICROCAL PEAQ-ITC, 25 °C, 19 injections of 2 µL; 50 mM potassium phosphate pH 7.4, 150 mM NaCl; at least triplicate; conditions: both partners purified
[6] = molecular target: T3, human dopa decarboxylase, apo form (human, UniProt P20711 1-480); assay: as above; conditions: both partners purified
T3 construct: same chain as m2 without PLP; Made from holoDDC by removal of the cofactor; also called apoDDC; source: E. coli BL21(DE3)pLysS, purified (Histrap Ni2+ column); PLP removed with 5 mM hydroxylamine and dialysis; not shown: His tag (from the Histrap column)
T3 sequence (looked up): T2 sequence (looked up)

Sequence of AAT (P17174 2-413): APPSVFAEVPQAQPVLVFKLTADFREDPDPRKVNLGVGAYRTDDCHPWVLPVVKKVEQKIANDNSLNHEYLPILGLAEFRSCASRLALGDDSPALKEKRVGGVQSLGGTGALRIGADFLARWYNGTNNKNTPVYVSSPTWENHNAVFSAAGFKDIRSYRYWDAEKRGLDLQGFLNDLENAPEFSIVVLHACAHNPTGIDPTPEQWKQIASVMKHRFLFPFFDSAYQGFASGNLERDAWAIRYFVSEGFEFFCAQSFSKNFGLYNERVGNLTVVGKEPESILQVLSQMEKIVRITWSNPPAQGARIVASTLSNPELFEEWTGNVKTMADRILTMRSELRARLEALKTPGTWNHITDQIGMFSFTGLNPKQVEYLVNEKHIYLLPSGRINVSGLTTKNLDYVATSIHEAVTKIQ
Sequence of GAD (Q99259 whole entry): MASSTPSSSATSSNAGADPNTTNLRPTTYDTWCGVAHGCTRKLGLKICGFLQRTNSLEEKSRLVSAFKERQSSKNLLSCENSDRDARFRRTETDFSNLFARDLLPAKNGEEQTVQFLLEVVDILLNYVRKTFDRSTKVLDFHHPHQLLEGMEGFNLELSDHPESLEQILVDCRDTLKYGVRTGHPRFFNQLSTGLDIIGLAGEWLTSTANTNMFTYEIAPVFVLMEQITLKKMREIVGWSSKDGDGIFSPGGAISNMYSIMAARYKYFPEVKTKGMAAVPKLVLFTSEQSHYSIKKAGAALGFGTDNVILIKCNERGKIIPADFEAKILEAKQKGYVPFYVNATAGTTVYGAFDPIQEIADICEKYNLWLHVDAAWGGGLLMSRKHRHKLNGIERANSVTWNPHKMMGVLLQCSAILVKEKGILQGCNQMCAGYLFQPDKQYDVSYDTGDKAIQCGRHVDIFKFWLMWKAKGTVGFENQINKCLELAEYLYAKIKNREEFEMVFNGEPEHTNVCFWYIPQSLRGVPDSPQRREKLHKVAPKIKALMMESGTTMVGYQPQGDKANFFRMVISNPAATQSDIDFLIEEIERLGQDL

Molecule: PLK (from UniProt O00764)
- Kd (AAT [1]): 3 µM
- Kd (GAD): 2.7 µM
- Kd (AAT [2]): 4.9 µM

- Kd [3]: 15.4 µM
- Kd [4]: 3.7 µM
- Kd [5]: 2.59 ± 0.11 µM
- dH [5]: -2.33 ± 0.1 kcal/mol
- stoichiometry N [5]: 0.94 ± 0.04
- Kd [6]: 0.92 ± 0.07 µM
- dH [6]: -3.03 ± 0.1 kcal/mol
- stoichiometry N [6]: 0.52 ± 0.01
B1: human pyridoxine 5′-phosphate oxidase (enzyme, UniProt Q9NVS9 1-261, looked up)
chain: MTCWLRGVTATFGRPAEWPGYLSHLCGRSAAMDLGPMRKSYRGDREAFEETHLTSLDPVKQFAAWFEEAVQCPDIGEANAMCLATCTRDGKPSARMLLLKGFGKDGFRFFTNFESRKGKELDSNPFASLVFYWEPLNRQVRVEGPVKKLPEEEAECYFHSRPKSSQIGAVVSHQSSVIPDREYLRKKNEELEQLYQDQEVPKPKSWGGYVLYPQVMEFWQGQTNRLHDRIVFRRGLPTGDSPLGPMTHRGEEDWLYERLAP
notes: human pyridoxine 5′-phosphate oxidase (PNPO), recombinant; FMN-dependent enzyme; FMN was present during lysis and the first dialysis; also called PNPO; hPNPO; source: E. coli, purified (Histrap Ni2+ column, dialysis)
